Experiment [1] deals with RlpA-SPOR (P. aeruginosa PAO1) (UniProt Q9X6V6). The experiment in a line: ITC.
The target of experiment [2] is RlpA-Δ32 (P. aeruginosa PAO1) (UniProt Q9X6V6). The experiment in a line: SPR.
Experiment [3] concerns the target RlpA-SPOR (P. aeruginosa PAO1) (UniProt Q9X6V6). Briefly: SPR.
The target of experiment [4] is RlpA-Δ32·MltF2 complex (MST) (P. aeruginosa PAO1) (UniProt Q9X6V6). The experiment in a line: MST.
The target of experiment [5] is RlpA-Δ32, fluorescently labeled (P. aeruginosa PAO1) (UniProt Q9X6V6). The experiment in a line: MST.
Experiment [6] concerns the target cross-linked RlpA-Δ32·MltF2 complex (SPR chip) (P. aeruginosa PAO1) (UniProt Q9X6V6). The experiment in a line: SPR.

From paper PMC9712689 come the findings set out here.

On to SltB3 (enzyme), for which the Kd was 79 nM in experiment [1]; 140 nM in experiment [2]; 2140 nM in experiment [3]; 390 nM in experiment [4]; 92 nM in experiment [5]. Besides, the stoichiometry N in experiment [1] came to 1. In addition, the koff in experiment [2] and in experiment [3] was 0.00079 s⁻¹ each time. The figures for the association rate constant (kon) in experiment [2] and in experiment [3] were 5500 M⁻¹ s⁻¹ and 370 M⁻¹ s⁻¹, respectively.

In experiment [6], “PBP1a (from UniProt Q07806 27-822) (enzyme)” registered a Kd of 280 nM, a koff of 0.0048 s⁻¹ and an on-rate (kon) of 51700 M⁻¹ s⁻¹.

In the case of PBP1b (enzyme), in experiment [2], the dissociation constant (Kd) turned out to be 55 nM, the dissociation rate constant (koff) is 0.0005 s⁻¹ and the kon is 9100 M⁻¹ s⁻¹. In experiment [4], this substance displayed a Kd of 57 nM. The Kd in experiment [5] worked out at 16 nM.
